According to US20240409645A1:

Legend:
[1] = biological target: human interleukin-2 receptor α-chain (IL-2Rα; CD25), recombinant protein (human) (UniProt P01589); test: ELISA, monovalent VHH-hFc
[2] = biological target: cynomolgus monkey IL-2Rα/CD25 subunit (cynomolgus monkey) (UniProt H6WS54); test: ELISA, monovalent VHH-hFc
[3] = biological target: cynomolgus monkey IL-2Rα/CD25 subunit (cynomolgus monkey) (UniProt H6WS54); test: ELISA, monovalent; EC50 cyno vs human subunit
mouse IL-2Rα (mouse) = biological target: T1, mouse IL-2Rα (mouse) (UniProt P01590); test: ELISA, P.E. on coated antigen
T1 sequence (looked up): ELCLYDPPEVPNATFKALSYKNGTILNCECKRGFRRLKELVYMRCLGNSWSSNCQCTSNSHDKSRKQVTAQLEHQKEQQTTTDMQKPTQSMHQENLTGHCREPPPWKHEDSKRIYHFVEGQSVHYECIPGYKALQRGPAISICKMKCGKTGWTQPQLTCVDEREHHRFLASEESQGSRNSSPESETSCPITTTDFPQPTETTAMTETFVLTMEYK

Sequence of human interleukin-2 receptor α-chain (IL-2Rα; CD25), recombinant protein (human) (P01589 22-240 limits assumed): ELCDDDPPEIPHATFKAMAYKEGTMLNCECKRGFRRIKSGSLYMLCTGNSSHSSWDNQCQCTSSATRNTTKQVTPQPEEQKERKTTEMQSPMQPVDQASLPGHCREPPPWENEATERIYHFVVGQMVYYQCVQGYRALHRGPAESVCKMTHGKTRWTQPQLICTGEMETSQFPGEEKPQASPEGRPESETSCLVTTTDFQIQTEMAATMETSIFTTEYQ
Sequence of cynomolgus monkey IL-2Rα/CD25 subunit (cynomolgus monkey) (H6WS54 entry or part of it): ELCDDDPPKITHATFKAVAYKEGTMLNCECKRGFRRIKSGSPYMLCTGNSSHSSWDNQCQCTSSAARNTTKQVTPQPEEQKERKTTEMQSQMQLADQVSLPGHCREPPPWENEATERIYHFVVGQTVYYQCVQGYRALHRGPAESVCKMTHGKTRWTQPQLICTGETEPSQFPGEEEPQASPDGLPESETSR

Binder | EC50 [1] | EC50 [2] | Fold change [3] | OD (PE binding ELISA) (mouse IL-2Rα (mouse))
1-MP01H01 VHH-hFc, monospecific monovalent (Fc fusion, part only; not given: Both Fc arms and linker, not shown: another chain or arm of the molecule; a dimerising Fc or GST; small tags and cut ends) VHH: EVQLVESGGGLVQAGGSLRLSCAASGRTFRTHNMGWFRRAPGKEREFVAAISWNVDNTLYADSVKGRFTISRDNGRNMVYLQMNSLKPEDTAVYYCAADNIPLSSDVAATATEYDYWGQGTQVTVSS | 0.478 nM | 0.498 nM | 1 fold | 
2-MP01A02 VHH-hFc, monospecific monovalent (Fc fusion, part only; not given: Both Fc arms and linker, not shown: another chain or arm of the molecule; a dimerising Fc or GST; small tags and cut ends) VHH: QVQLVESGGGLVQPGGSLRLSCATSGFTFRNNFMSWVRQAPGKGLEWVSTISYGGESTTYAESVKGRFTISRDNAKNTLYLQMNNLKPEDTAVYYCAKATSYDSIRSGSRGQGTQVTVSS | 0.074 nM | 0.096 nM | 1.3 fold | 
3-MP01E03 VHH-hFc, monospecific monovalent (Fc fusion, part only; not given: Both Fc arms and linker, not shown: another chain or arm of the molecule; a dimerising Fc or GST; small tags and cut ends) VHH: QVQLVESGGGLVQAGGSLRLSCTASGRTLSSYSMAWFRQAADKGREFVTAISSSGVVTHVLDSVKGRFTISRDNAKNTVYLQMNSLQPEDTALYFCAGTASSYSTYEANYNYWGQGTLVTVSS | 0.086 nM | 1.15 nM | 13.4 fold | 
4-MP01F04 VHH-hFc, monospecific monovalent (Fc fusion, part only; not given: Fc arms with stated mutations, not shown: another chain or arm of the molecule; a dimerising Fc or GST; small tags and cut ends) VHH: QVQLVESGGGLVQAGGSLRLSCAASGGTFRTRNMGWFRRAPGKEREFVAAVSWNVDNKLYADSVKGRFTISRDNGRNMVYLQMNSLKPEDTAVYYCAADNIPLSSDMRPTATEYDYWGQGTQVTVSS | 0.077 nM | 0.074 nM | 1 fold | 
5-MP01F05 VHH-hFc, monospecific monovalent (Fc fusion, part only; not given: Both Fc arms and linker, not shown: another chain or arm of the molecule; a dimerising Fc or GST; small tags and cut ends) VHH: EVQLVESGGGLVQAGGSLRLSCAASIRAFTTWSMAWFRQAPGKEREYVARINVSGSVTYYADFVKGRFTISRDNAKKTMYLEMNNLKPEDTALYYCAADRTGVGTNDYNYWGQGTQVTVSS | 0.088 nM | 0.136 nM | 1.5 fold | 
6-MP01G05 VHH-hFc, monospecific monovalent (Fc fusion, part only; not given: Both Fc arms and linker, not shown: another chain or arm of the molecule; a dimerising Fc or GST; small tags and cut ends) VHH: QVQLQESGGGLVQAGGSLRLSCAASGRTFSSYAMGWFRQAPGKEREFVAVISWNVDNTEYTDSVKGRFTISRDNDKNMVYLQMNSLKPEDTAVYYCAADSIPLSSDMSPTATEYGYWGQGTQVTVSS | 0.27 nM | 0.317 nM | 1.2 fold | 
7-MP01G08 VHH-hFc, monospecific monovalent (Fc fusion, part only; not given: Both Fc arms and linker, not shown: another chain or arm of the molecule; a dimerising Fc or GST; small tags and cut ends) VHH: EVQLVESGGGLVQAGGSLRLSCAASGRAFSMYNMGWFRQAPGKEREFVAATGWSGANTPYADSVKGRFTISRDNTQNTVYLQMNSLKPEDTATYYCAADSIRLRSDVTRIPLEYDYWGQGTQVTVSS | 0.173 nM | 0.133 nM | 0.8 fold | 
8-MP01C12 VHH-hFc, monospecific monovalent (Fc fusion, part only; not given: Both Fc arms and linker, not shown: another chain or arm of the molecule; a dimerising Fc or GST; small tags and cut ends) VHH: QVQLVESGGGLVQPGGSLRLSCATSGFTFSNNFMSWVRQAPGKGLEFVSTISYGGESTTYAEAVKGRFTISRDNAKNTLYLQMNNLKPEDTAIYYCAKATSYTSIRGAPRGQGTQVTVSS | 0.065 nM | 0.069 nM | 1.1 fold | 
9-MP05G01 VHH-hFc, monospecific monovalent (Fc fusion, part only; not given: Both Fc arms and linker, not shown: another chain or arm of the molecule; a dimerising Fc or GST; small tags and cut ends) VHH: EVQLVESGGGLVQAGGSLRLSCAASGGSIYTYNMGWFRQAPGKEREFVAGTLWSGGDSVYADFAKGRFTLSRENAKNTLYLQMNSLKPEDTATYYCAIDPLSLTSDWRVDELSSWGKGTLVTVSS | 0.078 nM | 0.074 nM | 1 fold | 
10-MP05F03 VHH-hFc, monospecific monovalent (Fc fusion, part only; not given: Both Fc arms and linker, not shown: another chain or arm of the molecule; a dimerising Fc or GST; small tags and cut ends) VHH: QVQLVESGGGLVQAGGSLRLSCAASGIPFDNYAMGWFRQAPGKEREFVAARDLEGIITRYGDSVKGRFTISRGNAKNTVFLQMNSLKPEDTAVYYCAARDGGVVAGSRSSAQYNYWGQGTQVTVSS | 0.105 nM | 0.098 nM | 0.9 fold | 
FJ1427_P035MP01G04 (VHH) VHH: QVQLVESGGGLVQPGGSLRLSCAASGFTFSNNFMSWVRQAPGKGLEWVSTISYFGDSTRYAESVKGRFTISRDNEKNTLHLQMNNLKPEDTAVYYCAKATSYDSIRSGSRGRGTQVTVSS |  |  |  | 0.047 OD450 nm
FJ1427_P035MP01E05 (VHH) VHH: QVQLVESGGGLVQAGGSLRLSCAASGRTFRTHNMGWFRRAPGEEREFVAVISWNVDNKLYADSVKGRFTISRDNGRNMVYLQMNSLKPEDTAVYYCAADNIPLSSDVRATATEFGYWGQGTQVTVSS |  |  |  | 0.046 OD450 nm
FJ1427_P035MP01H05 (VHH) VHH: EVQLVESGGGLVQPGGSLRLSCAASGFTFSNNFMSWVRQAPGKGLEWVSTISYFGDSTTYAESVKGRFTISRDNAKNTLYLQMNNLKPEDTAVYYCAKATSYDSIRSGSRGRGTQVTVSS |  |  |  | 0.046 OD450 nm
FJ1427_P035MP01F06 (VHH) VHH: QLQLVESGGGLVQAGGSLRLSCAASGGAFSRYAVGWFRMAPGKGREFVSAIDLSGTNTHVLDSVKGRFTISRDNDKNTAYLQMDKLQPEDTAVYWCAATSSSYSDYEANYNIWGQGTQVTVSS |  |  |  | 0.046 OD450 nm
FJ1427_P035MP01E07 (VHH) VHH: QVQLQESGGGLVQAGDSLRLSCAASGRSFRNYILAWYRQAPGKEREFLAAISWLEGTLYADSVEDRFTISRDNPKNTVHLQMDSLKPEDTAVYYCAADRGPVRPVLAPDVDYWGQGTQVTVSS |  |  |  | 0.046 OD450 nm
FJ1427_P035MP01G07 (VHH) VHH: QVQLVESGGGLVQTGDSLRLSCAASGRSFRNYILAWYRQAPGKEREFLAAISWLDGTLYADSVEGRFTISRDNPKNTVHLQMDSLKPEDTAVYYCAADRGPVRPVLAPDVDYWGQGTQVTVSS |  |  |  | 0.047 OD450 nm
FJ1427_P035MP01H07 (VHH) VHH: EVQLVESGGGLVQAGGSLRLSCAASGRTLSGYAMAWFRQPPDKGREFVTAISSSGIVTHVLDSVKGRFTISRDNAKNTVYLQMNSLQPEDTALYFCAATASSYSDYEANYNYWGQGTLVTVSS |  |  |  | 0.049 OD450 nm
FJ1427_P035MP01D08 (VHH) VHH: EVQLVESGGGLVQAGGSLRLSCAASGGTFRTRNMGWFRRAPGKEREFVAAVSWNVDNKLYAGSVKGRFTISRDNGRNMVYLQMNSLKPEDTAVYYCAADNIPLSSDMRPTATEYDYWGQGTQVTVSS |  |  |  | 0.045 OD450 nm
FJ1427_P035MP01F08 (VHH) VHH: EVQLVESGGGWVQPGDSLRLSCAASGRSFRNYVMGWFRQVPGKEREFLSVITSLGGTLDADSVADRFTISRDNSKNTVYLQMDSLKPEDTAVYYCAADRGPARYISASDVDYWGQGTQVTVSS |  |  |  | 0.046 OD450 nm
FJ1427_P035MP01H08 (VHH) VHH: EVQLVESGGRLVQSGGSLRLSCAASGRAFSTHNMGWFRRAPGKEREFVAAISWNVDNKLYANSVKGRFAISRDNGRNMVYLQMNSLKPEDTAVYYCAADNIPLSSDMRATATEYDVWGQGTQVTVSS |  |  |  | 0.047 OD450 nm
FJ1427_P035MP01D09 (VHH) VHH: QVQLVESGGGLVQPGGSLRLSCAASGFTFSNNFMSWVRQAPGKGLEWVSTISYGGESTTYAESVKGRFTISRDNAKNTLYLQMNNLKPEDTAVYYCAKATSYDSIRSGSRGQGTQVTVSS |  |  |  | 0.045 OD450 nm
FJ1427_P035MP01E10 (VHH) VHH: QVQLVESGGGLVQAGDSLRLSCAASGRSFRNYILAWYRQAPGKEREFLAAISWLDGTLYADSVEDRFTISRDNPKNTVHLQMDSLKPEDTAVYYCAADRGPVRPVLAPDVDYWGQGTQVTVSS |  |  |  | 0.046 OD450 nm
FJ1427_P035MP01G10 (VHH) VHH: EVQLVESGGGLVQAGGSLRLSCAASGGAFSRYAVGWFRMAPGKGREFVSAIDLSGTNTHVLDSVKGRFTISRDNDKNTAYLQMDKLQPEDTAVYWCAATSSSYSDYEANYNIWGQGTQVTVSS |  |  |  | 0.046 OD450 nm
FJ1427_P035MP01H10 (VHH) VHH: QVQLVESGGGLVETGGSLRLSCAASGITFNDHTMAWFRQAPGKEREFVAARDWSDIITRYASSVKGRFTISRDNAGNTGFLQMNSLRPEDTAVYYCAAREGGVVAGVRSGAPYDYWGQGTQVTVSS |  |  |  | 0.057 OD450 nm
FJ1427_P035MP01A11 (VHH) VHH: QVQLVESGGGLVQPGGSLRLSCAASGRTFETHNMGWFRRAPGKEREFVAVISWNVDSTEYTDSVKGRFTISRDNDKNMVYLQMNSLKPEDTGVYYCAADNIPLSSDMSPTAAEYGYWGQGTQVTVSS |  |  |  | 0.046 OD450 nm
FJ1427_P035MP01D11 (VHH) VHH: QLQLVESGGGLVQAGDSLRLSCAASGRSFRNYIMAWYRQAPGKEREFLAAISWLDGTLYADSVEDRFTISRDNPKNTVHLQMDSLKPEDTAVYYCAADRGPVRPVLAPDVDYWGQGTQVTVSS |  |  |  | 0.045 OD450 nm
FJ1427_P035MP01E11 (VHH) VHH: QVQLVESGGGLVQPGGSLRLSCAASGFTFSNNFMSWVRQAPGKGLEWVSTISYFGDSTRYAESVKGRFTISRDNEKNTLYLQMNNLKPEDTAVYYCAKATSYDSIRSGSRGRGTQVTVSS |  |  |  | 0.046 OD450 nm
FJ1427_P035MP01F11 (VHH) VHH: QVQLQESGGGLVQAGDSLRLSCAASGRSFRNYILAWYRQAPGKEREFLAAISWLDGTLYADSVEDRFTISRDNPKNTVHLQMDSLKPEDTAVYYCAADRGPVRPVLAPDVDYWGQGTQVTVSS |  |  |  | 0.047 OD450 nm
FJ1427_P035MP01H11 (VHH) VHH: QVQLVESGGGLVQAGGSLRLSCAASGRTFRTHNMGWFRRAPGKEREFVAAISWNVDNTLYADSVKGRFTISRDNDRNMVYLQMNSLKPEDTAVYFCAADNIPLSSDVRATATEFGYWGQGTRVTVSS |  |  |  | 0.047 OD450 nm
FJ1427_P035MP01B12 (VHH) VHH: QVQLQESGGGLVQAGDSLRLSCAASGRSFRNYILAWYRQAPGKEREFLAAISWLDGTFYANSVEGRFTISRDNPKNTVHLQMDGLKPEDTAVYYCAADRGPVRPVLAPDVDYWGQGTQVTVAS |  |  |  | 0.046 OD450 nm
